Results as given in the supplement of paper PMC10126150.
± gives the standard deviation of the averaged measurements.

System: ATP
Assay: switch fluorescence ratio, 500 uM ATP over buffer (Cy3 cluster intensity, sum of 5 cycles each) (fold (ratio)); higher = stronger signal-on switching upon ATP binding; sequences stand for … in TCGTCGGCAGCGTCAGATGTGTATAAGAGACAGTTTTTTTTTTTTTTTTTTTTTTTTT…TC
Details: aptamer strand: ATP DNA aptamer (quencher-CACCTGGGGGAGTATTGCGGAGGAAGG + anchor), 100 nM annealed; ATP concentration: 500 uM
How it was run: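 Clusters carrying Cy3-labelled switching strands on a modified Illumina MiSeq flow-cell were annealed to 100 nM quencher-labelled ATP aptamer and imaged in selection buffer. They were imaged again after 15 min with 500 uM ATP at 22 °C, over five buffer/ATP cycles with NaOH stripping and re-annealing in between. For each cluster, the fluorescence ratio is the summed Cy3 intensity of the target cycles divided by that of the buffer cycles, averaged per switch-domain sequence. Clusters outside 100-1000 RFU were left out.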
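Also: ATP exposure 15 min at 22 °C before imaging.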

| Sequence | switch fluorescence ratio |
| --- | --- |
| TCTTTGGGGT | 1.01 ± 0.012 |
| TCTTTGTATG | 0.991 ± 0.017 |
| TCTTTGTCTA | 0.972 ± 0.02 |
| TCTTTTAAAG | 0.988 ± 0.035 |
| TCTTTTCGAA | 1.01 ± 0.033 |
| TCTTTTCTTT | 1.04 ± 0.043 |
| TCTTTTGGCG | 0.927 ± 0.059 |
| TCTTTTGGGA | 1.16 ± 0.29 |
| TCTTTTGGTG | 1.03 ± 0.019 |
| TCTTTTTGGG | 1.13 ± 0.16 |
| TCTTTTTTGC | 0.986 ± 0.073 |
| TCTTTTTTGG | 1 ± 0.042 |
| TGAAAAAGAT | 0.989 ± 0.028 |
| TGAAAAGAGG | 0.988 ± 0.021 |
| TGAAAAGGGC | 0.9875 ± 0.0095 |
| TGAAAATTCG | 1.08 ± 0.11 |
| TGAAAGAACT | 1.16 ± 0.21 |
| TGAAAGTTGG | 0.997 ± 0.013 |
| TGAAATAATT | 0.9791 ± 0.0017 |
| TGAAATGAAT | 0.994 ± 0.02 |
| TGAAATGGTT | 1.01 ± 0.017 |
| TGAAATGTTT | 0.999 ± 0.031 |
| TGAAATTGTT | 1 ± 0.045 |
| TGAACAAATG | 1.04 ± 0.11 |
| TGAACGGCTT | 1.04 ± 0.011 |
| TGAAGAAGGT | 1.03 ± 0.015 |

| Sequence | switch fluorescence ratio |
| --- | --- |
| TGAAGACTGT | 0.988 ± 0.045 |
| TGAAGCAAAT | 1.77 ± 0.075 |
| TGAAGGATAC | 1.28 ± 0.23 |
| TGAAGGGTTC | 1.12 ± 0.24 |
| TGAAGGGTTT | 0.996 ± 0.052 |
| TGAAGTAGGG | 1.05 ± 0.12 |
| TGAAGTTCGC | 0.969 ± 0.021 |
| TGAAGTTTTC | 0.968 ± 0.022 |
| TGAAGTTTTG | 1.02 ± 0.027 |
| TGAATAGGAG | 1.011 ± 0.0027 |
| TGAATAGGGA | 0.982 ± 0.05 |
| TGAATATAGT | 1.004 ± 0.0042 |
| TGAATATATG | 1.02 ± 0.032 |
| TGAATCGGGA | 0.99 ± 0.011 |
| TGAATCTGTT | 1.02 ± 0.05 |
| TGAATGAAGG | 1.01 ± 0.058 |
| TGAATGATAG | 0.983 ± 0.026 |
| TGAATGGGGC | 0.953 ± 0.042 |
| TGAATTTTAC | 1.03 ± 0.04 |
| TGACACGGTT | 0.9814 ± 0.0058 |
| TGACATAGGT | 1.02 ± 0.019 |
| TGACATGTAG | 1.01 ± 0.052 |
| TGACATTATA | 1.01 ± 0.032 |
| TGACATTTGT | 0.965 ± 0.048 |
| TGACCCTATA | 1.06 ± 0.028 |
| TGACCCTTAG | 0.987 ± 0.025 |

| Sequence | switch fluorescence ratio |
| --- | --- |
| TGACCCTTCT | 1.14 ± 0.05 |
| TGACCGAAGT | 1.043 ± 0.0028 |
| TGACCGGGGG | 1.0571 ± 5.2e-05 |
| TGACCTCGTG | 0.995 ± 0.039 |
| TGACGAGGTG | 0.9816 ± 0.0051 |
| TGACGCAAAG | 1.63 ± 0.065 |
| TGACGCATAG | 1.7 ± 0.12 |
| TGACGCCGGG | 0.98 ± 0.018 |
| TGACGCGTTT | 1.02 ± 0.041 |
| TGACGGCTGG | 1.026 ± 0.0044 |
| TGACGGGAGG | 0.991 ± 0.04 |
| TGACGGGCAC | 1.17 ± 0.036 |
| TGACGGGGGA | 0.986 ± 0.021 |
| TGACGGGGTT | 0.992 ± 0.026 |
| TGACGGTGTG | 0.973 ± 0.02 |
| TGACGTTAAG | 1.03 ± 0.086 |
| TGACGTTATG | 1 ± 0.053 |
| TGACTACATG | 1.04 ± 0.013 |
| TGACTACCAT | 1.07 ± 0.08 |
| TGACTCCAGG | 1.23 ± 0.023 |
| TGACTTAGTG | 1.03 ± 0.016 |
| TGACTTATGG | 0.983 ± 0.08 |
| TGACTTGGCG | 1.026 ± 0.0087 |
| TGACTTGTGC | 0.976 ± 0.037 |
